Test results from patent US20100209436.

What was measured:
[1] = system: human OPA1 splice variant 7
[2] = system: human OPA1 splice variant 4
[3] = system: human OPA1 splice variant 8 (A210V polymorphism)
Chain of human OPA1 splice variant 8 (A210V polymorphism) (chain, as listed by the source A210V): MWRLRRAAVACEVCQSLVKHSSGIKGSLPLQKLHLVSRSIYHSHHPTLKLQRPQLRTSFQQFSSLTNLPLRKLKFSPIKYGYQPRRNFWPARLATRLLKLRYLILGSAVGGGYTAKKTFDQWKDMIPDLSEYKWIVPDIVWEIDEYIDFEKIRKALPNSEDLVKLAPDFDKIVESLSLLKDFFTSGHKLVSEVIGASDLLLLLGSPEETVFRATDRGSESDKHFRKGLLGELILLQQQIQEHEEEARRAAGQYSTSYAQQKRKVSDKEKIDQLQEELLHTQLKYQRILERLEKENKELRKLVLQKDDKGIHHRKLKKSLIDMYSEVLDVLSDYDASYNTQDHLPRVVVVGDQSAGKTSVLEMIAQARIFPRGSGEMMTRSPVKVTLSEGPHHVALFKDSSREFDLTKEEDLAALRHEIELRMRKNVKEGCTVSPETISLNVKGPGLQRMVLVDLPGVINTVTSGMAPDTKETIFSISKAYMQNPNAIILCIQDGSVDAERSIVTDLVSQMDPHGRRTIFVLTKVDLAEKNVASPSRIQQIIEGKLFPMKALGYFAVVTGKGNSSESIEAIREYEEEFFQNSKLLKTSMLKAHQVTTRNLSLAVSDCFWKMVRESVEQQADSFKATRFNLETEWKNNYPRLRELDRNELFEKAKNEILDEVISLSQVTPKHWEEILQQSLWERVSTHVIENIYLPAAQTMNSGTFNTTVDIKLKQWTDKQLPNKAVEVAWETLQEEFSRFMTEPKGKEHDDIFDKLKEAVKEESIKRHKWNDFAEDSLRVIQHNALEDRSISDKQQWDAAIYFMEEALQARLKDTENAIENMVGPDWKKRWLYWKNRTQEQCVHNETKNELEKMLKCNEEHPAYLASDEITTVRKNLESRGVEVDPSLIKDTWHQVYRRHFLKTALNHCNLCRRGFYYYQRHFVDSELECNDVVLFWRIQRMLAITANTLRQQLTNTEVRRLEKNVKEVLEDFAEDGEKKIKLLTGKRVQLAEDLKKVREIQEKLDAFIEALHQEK

Chain of human OPA1 splice variant 7 (chain, as listed by the source mutant): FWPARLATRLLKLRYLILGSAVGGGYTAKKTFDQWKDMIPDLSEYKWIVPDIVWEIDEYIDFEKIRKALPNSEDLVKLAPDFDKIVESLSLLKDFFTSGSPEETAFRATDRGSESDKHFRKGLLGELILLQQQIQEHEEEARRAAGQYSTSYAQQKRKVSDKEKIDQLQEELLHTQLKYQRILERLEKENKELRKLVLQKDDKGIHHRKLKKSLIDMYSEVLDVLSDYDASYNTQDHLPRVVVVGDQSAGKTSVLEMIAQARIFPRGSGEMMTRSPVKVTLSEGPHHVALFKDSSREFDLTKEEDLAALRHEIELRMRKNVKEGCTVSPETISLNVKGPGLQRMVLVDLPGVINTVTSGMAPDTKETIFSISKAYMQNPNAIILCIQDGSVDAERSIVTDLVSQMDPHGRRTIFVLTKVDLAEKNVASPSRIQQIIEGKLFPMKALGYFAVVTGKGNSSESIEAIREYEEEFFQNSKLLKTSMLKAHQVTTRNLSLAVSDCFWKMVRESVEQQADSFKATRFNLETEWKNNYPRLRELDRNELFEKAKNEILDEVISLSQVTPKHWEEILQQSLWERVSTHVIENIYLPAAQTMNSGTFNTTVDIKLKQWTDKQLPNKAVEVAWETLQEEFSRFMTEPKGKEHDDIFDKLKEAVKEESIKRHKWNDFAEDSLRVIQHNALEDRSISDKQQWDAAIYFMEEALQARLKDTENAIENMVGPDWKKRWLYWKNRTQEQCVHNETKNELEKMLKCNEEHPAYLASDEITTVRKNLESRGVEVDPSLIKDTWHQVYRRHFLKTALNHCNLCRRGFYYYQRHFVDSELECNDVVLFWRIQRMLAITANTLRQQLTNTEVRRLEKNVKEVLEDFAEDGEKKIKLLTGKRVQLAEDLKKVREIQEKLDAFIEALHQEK
Chain of human OPA1 splice variant 4 (chain, as listed by the source mutant): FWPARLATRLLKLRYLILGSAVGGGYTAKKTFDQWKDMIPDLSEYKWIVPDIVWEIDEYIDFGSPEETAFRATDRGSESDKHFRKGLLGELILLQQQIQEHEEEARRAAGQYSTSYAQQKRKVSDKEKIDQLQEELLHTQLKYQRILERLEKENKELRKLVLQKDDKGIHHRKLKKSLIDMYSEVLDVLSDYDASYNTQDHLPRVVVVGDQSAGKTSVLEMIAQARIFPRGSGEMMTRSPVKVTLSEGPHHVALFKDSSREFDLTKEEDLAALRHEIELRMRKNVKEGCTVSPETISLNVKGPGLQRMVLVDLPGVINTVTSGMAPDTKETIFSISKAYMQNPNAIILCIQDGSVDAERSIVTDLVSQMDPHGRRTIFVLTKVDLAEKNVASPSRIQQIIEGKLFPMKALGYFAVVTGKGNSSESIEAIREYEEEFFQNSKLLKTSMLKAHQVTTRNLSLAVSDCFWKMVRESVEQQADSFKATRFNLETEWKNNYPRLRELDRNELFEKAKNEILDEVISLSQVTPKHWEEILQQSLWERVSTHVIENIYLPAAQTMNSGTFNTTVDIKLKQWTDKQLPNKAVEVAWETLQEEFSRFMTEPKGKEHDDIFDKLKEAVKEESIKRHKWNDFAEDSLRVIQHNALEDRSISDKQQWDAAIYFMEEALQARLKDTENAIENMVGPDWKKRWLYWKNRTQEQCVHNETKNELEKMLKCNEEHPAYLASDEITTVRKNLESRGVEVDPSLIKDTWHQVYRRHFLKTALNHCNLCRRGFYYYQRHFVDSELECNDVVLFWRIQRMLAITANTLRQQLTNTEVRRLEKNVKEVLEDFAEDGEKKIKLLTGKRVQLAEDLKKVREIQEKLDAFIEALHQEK

Substance	OPA1 processing (western blot, Δyta10Δyta12 yeast) [1]	OPA1 processing (western blot, Δyta10Δyta12 yeast) [2]	OPA1 processing (western blot, Δyta10Δyta12 yeast) [3]
proteolytically inactive murine Afg3l2^E574Q (Yta10 (1-61)-Afg3l2^E574Q (36-802)-HA)	Cleavage was abolished when point mutations were introduced in the proteolytic center of Afg3l1 or Afg3l2.		
hetero-oligomeric Afg3l1^E567Q/paraplegin complex (murine)	Slight OPA1 processing, in particular formation of S3, was detectable with both the Afg3l2^E567Q/paraplegin complex and the Afg3l1^E567Q/paraplegin complex	splice variant 4 was processed only to a very minor extent by the Afg3l2^E567Q/paraplegin complex but not by the Afg3l1^E567Q/paraplegin complex	A similar dependency was observed for splice variant 8
Afg3l1^E567Q/paraplegin^E575Q complex (murine, both subunits proteolytically inactive)	small OPA1 isoforms were not detected when both, Afg 3l1 and paraplegin, or Afg 3l2 and paraplegin, contained point mutations in their proteolytic centres		
homo-oligomeric murine Afg3l2 complex (Yta10 (1-61)-Afg3l2 (36-802)-HA)	expression of each of the murine subunits, Afg3l2 or Afg3l1, in Δyta10Δyta12 cells promoted OPA1 processing; expression of Afg3l2 preferentially led to the formation of the S3 isoform	Afg3l1 and Afg3l2 complexes mediated processing of OPA1 splice variants 4 and 8 in a similar manner	Afg3l1 and Afg3l2 complexes mediated processing of OPA1 splice variants 4 and 8 in a similar manner
Afg3l2^E574Q/paraplegin^E575Q complex (murine, both subunits proteolytically inactive)	small OPA1 isoforms were not detected when both, Afg 3l1 and paraplegin, or Afg 3l2 and paraplegin, contained point mutations in their proteolytic centres		
hetero-oligomeric Afg3l2^E574Q/paraplegin complex (murine)	Slight OPA1 processing, in particular formation of S3, was detectable with both the Afg3l2^E567Q/paraplegin complex and the Afg3l1^E567Q/paraplegin complex	splice variant 4 was processed only to a very minor extent by the Afg3l2^E567Q/paraplegin complex	A similar dependency was observed for splice variant 8
proteolytically inactive murine Afg3l1^E567Q (Yta10 (1-61)-Afg3l1^E567Q (25-789)-Myc)	Cleavage was abolished when point mutations were introduced in the proteolytic center of Afg3l1 or Afg3l2.		
